Test results: patent US20250297004A1, “NECTIN-4 BINDING AGENTS” (INNATE PHARMA, priority 2022, published 2025)

Tests used:
Test in all cases: Epitope mapping using Nectin-4 point mutants
Assay type in all cases: binding
[1] = molecular target: T1, human Nectin-4 Mutant 9 (L150S/S152A/Q234R/I236S) (Homo sapiens, UniProt Q96NY8, I236S/L150S/Q234R/S152A)
T1 construct: expressed in transfected cells; host or cells: HEK293T
T1 sequence (Q96NY8 32-510 L150S/S152A/Q234R/I236S): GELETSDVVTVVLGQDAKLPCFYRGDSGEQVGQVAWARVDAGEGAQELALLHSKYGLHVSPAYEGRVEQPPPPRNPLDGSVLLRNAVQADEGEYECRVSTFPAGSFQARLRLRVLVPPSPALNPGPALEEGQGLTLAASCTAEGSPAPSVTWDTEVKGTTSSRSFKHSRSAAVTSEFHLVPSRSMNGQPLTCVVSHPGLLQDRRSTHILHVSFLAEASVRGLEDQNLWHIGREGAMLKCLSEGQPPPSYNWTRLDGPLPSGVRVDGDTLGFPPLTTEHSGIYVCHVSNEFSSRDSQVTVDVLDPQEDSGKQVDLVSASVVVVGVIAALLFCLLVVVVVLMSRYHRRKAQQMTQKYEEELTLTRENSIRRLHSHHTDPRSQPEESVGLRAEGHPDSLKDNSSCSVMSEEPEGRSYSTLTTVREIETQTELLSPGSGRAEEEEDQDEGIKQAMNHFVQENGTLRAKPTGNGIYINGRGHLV
Excerpt: (§1) Combined with the published structures of the Nectin-4 domains, Nectin-4 mutations at surface exposed amino acids residues were designed. Nectin-4 domain structure was modelled based on Protein Data Bank reference: 4FRW (domains V et C1). Human Nectin-4 used was NCBI Reference Sequence: NP_112178.2, mouse Nectin-4 used was NCBI Reference Sequence: AAL79833.1, cynomolgus Nectin-4 used was NCBI Reference Sequence: XP_005541277.1, rat Nectin-4 used was NCBI Reference Sequence: NP_001102546.1. The cells expressing the Nectin-4 mutants are then be used for testing anti-Nectin-4 antibodies for loss of binding to different Nectin-4 mutants to identify antibodies that bind to the same site on Nectin-4. […] FIGS. 8A and 8B show different view of a molecular model of the human Nectin-4 protein, indicating the position of substituted residues in mutants 1, 2, 3, 4, 5, 6, 7, 8 and 9.
(§2) Nectin-4 mutants were generated by PCR. The sequences amplified were run on agarose gel and purified using the Macherey Nagel PCR Clean-Up Gel Extraction kit. The purified PCR products generated for each mutant were then ligated into an expression vector, with the ClonTech InFusion system. The vectors containing the mutated sequences were prepared as Miniprep and sequenced. After sequencing, the vectors containing the mutated sequences were prepared as Midiprep using the Promega PureYield™ Plasmid Midiprep System. HEK293T cells were grown in DMEM medium (Invitrogen), transfected with vectors using Invitrogen's Lipofectamine 2000 and incubated at 37° C. in a CO2 incubator for 48 hours prior to testing for transgene expression. The targeted amino acid mutations are shown in Table 13 below, listing the residue present in wild-type Nectin-4/position of residue/residue present in mutant Nectin-4, with position reference being to the Nectin-4 protein with leader peptide shown in SEQ ID NO: 1.
(§3) (+) means that antibodies-Nectin-4 association occurs.

[2] = molecular target: T2, human Nectin-4 Mutant 3 (A76S/Q77R/E78A/S91N) (Homo sapiens, UniProt Q96NY8, A76S/E78A/Q77R/S91N)
T2 construct: expressed in transfected cells; host or cells: HEK293T
T2 sequence (Q96NY8 32-510 A76S/Q77R/E78A/S91N): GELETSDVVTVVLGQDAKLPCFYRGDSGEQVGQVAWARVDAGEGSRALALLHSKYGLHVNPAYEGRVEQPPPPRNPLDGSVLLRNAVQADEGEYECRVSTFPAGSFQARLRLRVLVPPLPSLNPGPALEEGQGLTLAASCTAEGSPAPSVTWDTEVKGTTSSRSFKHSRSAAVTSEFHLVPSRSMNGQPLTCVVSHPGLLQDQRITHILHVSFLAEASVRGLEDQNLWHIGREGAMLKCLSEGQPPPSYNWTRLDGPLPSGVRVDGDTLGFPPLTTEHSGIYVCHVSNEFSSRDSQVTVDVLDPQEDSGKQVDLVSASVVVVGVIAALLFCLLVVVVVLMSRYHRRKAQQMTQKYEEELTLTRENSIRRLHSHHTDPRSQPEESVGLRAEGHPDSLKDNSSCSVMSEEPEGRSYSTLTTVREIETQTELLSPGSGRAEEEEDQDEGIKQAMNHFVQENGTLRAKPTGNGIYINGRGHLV
Excerpt: as §1, §2, §3

[3] = molecular target: T3, human Nectin-4 Mutant 2 (V90S/P92A/A93S/E95A/G96D) (Homo sapiens, UniProt Q96NY8, A93S/E95A/G96D/P92A/V90S)
T3 construct: expressed in transfected cells; host or cells: HEK293T
T3 sequence (Q96NY8 32-510 V90S/P92A/A93S/E95A/G96D): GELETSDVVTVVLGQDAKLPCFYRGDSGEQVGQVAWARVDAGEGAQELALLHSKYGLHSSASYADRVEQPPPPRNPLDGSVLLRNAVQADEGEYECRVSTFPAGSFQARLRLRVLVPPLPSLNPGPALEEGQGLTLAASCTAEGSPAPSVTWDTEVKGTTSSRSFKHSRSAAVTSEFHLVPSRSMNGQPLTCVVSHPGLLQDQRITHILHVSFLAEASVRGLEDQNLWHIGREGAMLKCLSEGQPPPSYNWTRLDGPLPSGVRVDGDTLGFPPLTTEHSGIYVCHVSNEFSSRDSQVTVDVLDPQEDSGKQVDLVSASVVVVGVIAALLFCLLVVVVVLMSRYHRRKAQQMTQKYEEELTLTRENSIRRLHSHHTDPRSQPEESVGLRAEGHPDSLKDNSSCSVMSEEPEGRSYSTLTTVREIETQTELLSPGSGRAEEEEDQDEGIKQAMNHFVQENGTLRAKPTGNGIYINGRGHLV
Excerpt: as §1, §2, §3

[4] = tested on: human Nectin-4 Mutant 5 (A158P/E160G/S243A/F244S); settings: results irrelevant due to an absence of expression of said protein
Excerpt: as §1, §2, §3

B1: 5E7 (antibody, V domains shown)
VH: QVQLQQPGAELVKPGASVKLSCKASGYIFTSYWMHWVKQRPGQGLEWIGEIDPSDSYTNYNQKFKGKATLTLDKSSSTTYMQLSSLTSEDSAVYYCVRGYGNYGDYWGQGTTLTVSSASTKGP
VL: DVVMTQAAFSNPVTLGTSASISCRSSKSLLHSNGITYLYWYLQKPGQSPQLLIYQMSNLASGVPDRFSSSGSGTDFTLRISRVEAEDVGVYYCAQNLELPWTFGGGTKLEIKRTVAAP
association with Mutant 9 [1]: +
association with Mutant 3 [2]: +
association with Mutant 2 [3]: +
association with Mutant 5 [4]: −

B2: N41 (antibody, V domains shown)
VH: QVQLKQSGPGLVQPSQSLSITCTVSGFSLTNYGVHWVRQSPGKGLEWLGVIWSGGSTDYNAAFISRLSISKDTSKSQVFFKMNSLQADDTAIYYCARELIHAMDNWGQGTSVTVSS
VL: DIQMTQSPASLSVSVGETVTITCRASENIYSNLAWYQQKQGNSPQLLVFAATNLADGVPSRFSGSGSGTQYSLKINSLQSEDFGTYYCQHFWGTPTFGGGTKLEIK
association with Mutant 9 [1]: +
association with Mutant 3 [2]: +
association with Mutant 2 [3]: +
association with Mutant 5 [4]: −
